From US20210260163A1

Target: IL-2Rα (on CTLL2 cells) (UniProt P01590)
Assay: cell-based or functional assay

IL-2Rα (on CTLL2 cells), sequence (P01590 22-268 limits assumed): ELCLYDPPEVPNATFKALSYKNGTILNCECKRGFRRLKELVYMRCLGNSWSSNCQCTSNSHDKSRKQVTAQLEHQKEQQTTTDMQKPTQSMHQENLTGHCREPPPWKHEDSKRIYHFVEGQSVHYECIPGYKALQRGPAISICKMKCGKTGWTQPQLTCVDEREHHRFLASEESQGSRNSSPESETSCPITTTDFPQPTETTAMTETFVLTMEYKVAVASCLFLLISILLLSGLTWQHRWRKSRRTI

| Substance | EC50 in the CTLL2 cell-based activity assay [nM] |
| --- | --- |
| IgG1FC (with LALA and Knob)-IL-2-T3A/C125S-R38S/F42A/Y45A/E62A (SEQ ID NO: 132) paired with Fc hole (SEQ ID NO: 194) (from UniProt P0DOX5 223-449) (Fc fusion) | 60 |
| IgG1FC (with LALA and Knob)-IL-2-T3A/C125S-R38S/F42A/Y45A/A73T (SEQ ID NO: 135) paired with Fc hole (SEQ ID NO: 194) (from UniProt P0DOX5 223-449) (Fc fusion) | 60 |
| HSA-IL-2-T3A/C125S-F42A/Y45A/L72G (SEQ ID NO: 126) | 77 |
| HSA-IL-2-T3A/C125S-R38S/F42A/Y45A/E62A (SEQ ID NO: 127) | 76 |
